This data set deals with the molecule itself. Kind of data set: SEC.

Numbering of substitutions follows the chain as printed. Names may count otherwise.

B1: mouse SAA3 F24S/M25S double mutant (natural protein, UniProt P04918 19-122, looked up)
chain: QRWVQSSKEAGQGSRDMWRAYSDMKKANWKNSDKYFHARGNYDAARRGPGGAWAAKVISDAREAVQKFTGHGAEDSRADQFANEWGRSGKDPNHFRPAGLPKRY
B1: the binding result is listed as “binds”.

B2: mouse SAA3 W71S/V75S double mutant (natural protein, UniProt P04918 19-122, looked up)
chain: B1 chain with S6F, S7M, W53S, V57S
With B2, the binding result is “binds”.

(Values after PMC6754605 (Proceedings of the National Academy of Sciences of the …, 2019).)
